# Assay results taken from patent US6812017B2, “Mammalian secreted group IIF phospholipase A2” (Centre National de la Recherche Scientique - CNRS, priority 2000, dated 2004).
# B1: hGIIF sPLA2: novel human secreted group IIF phospholipase A2, recombinantly expressed in E. coli; 168 amino acid sequence, mature protein 148 residues (protein)
# chain: MKKFFTVAILAGSVLSTAHGSLLNLKAMVEAVTGRSAILSFVGYGCYCGLGGRGQPKDEVDWCCHAHDCCYQELFDQGCHPYVDHYDHTIENNTEIVCSDLNKTECDKQTCMCDKNMVLCLMNQTYREEYRGFLNVYCQGPTPNCSIYEPPPEEVTCSHQSPAPPAPP
# B2: hGV: human group V secreted phospholipase A2 (protein)
# chain: MKGLLPLAWFLACSVPAVQGGLLDLKSMIEKVTGKNALTNYGFYGCYCGWGGRGTPKDGTDWCCWAHDHCYGRLEEKGCNIRTQSYKYRFAWGVVTCEPGPFCHVNLCACDRKLVYCLKRNLRSYNPQYQYFPNILCS
# B3: hGIIA sPLA2: human group IIA secreted phospholipase A2 (protein)
# chain: MKTLLLLAVIMIFGLLQAHGNLVNFHRMIKLTTGKEAALSYGFYGCHCGVGGRGSPKDATDRCCVTHDCCYKRLEKRGCGTKFLSYKFSNSGSRITCAKQDSCRSQLCECDKAAATCFARNKTTYNKKYQYYSNKHCRGSTPRC
# B4: hGX: human group X secreted phospholipase A2 (protein)
# chain: MLLLLLPSLLLLLLLPGPGSGEASRILRVHRRGILELAGTVGCVGPRTPIAYMKYGCFCGLGGHGQPRDAIDWCCHGHDCCYTRAEEAGCSPKTERYSWQCVNQSVLCGPAENKCQELLCKCDQEIANCLAQTEYNLKYLFYPQFLCEPDSPKCD
# Legend:
# [1] = Ca2+-dependence of the hydrolysis of phosphatidylcholine vesicles; assay type: biochemical
# Procedure: (§1) FIGS. 4A-4C represent the enzymatic properties of recombinant hGIIF sPLA2. […] Full experimental details are provided in materials and methods.
# (§2) The Ca^2+ and pH dependencies of hGIIF sPLA2 were measured with POPC vesicles containing 1-palmitoyl-2-[1-^3H]palmitoyl-sn-glycero-3-phospho9choline vesicles and POPG vesicles containing 1-palmitoyl-2-[1-^3H]palmitoyl-sn-glycero-3-phosphoglyceril, respectively. Substrate specificity studies were carried out using a slightly modified assay with the fatty acid binding protein [7]. Reaction mixtures contained 30 μM POPC, POPG, or POPS (1-Palmitoyl-2-Oleoyl-sn-Glcero-3-phosphoserine) large […] vesicles (0.1 μm, prepared by extrusion as described [222[) in Hanks' balanced salt solution with 1 mM Ca^2+, 1 mM Mg^2+, 9.7 μg fatty acid binding protein, and 1 μm 11-dansyl-undecanoic acid at 37° C. Assays were calibrated by adding a known amount of oleic acid to the complete assay in the absence of enzyme.
# [2] = Substrate specificity, fatty acid binding protein assay on phospholipid vesicles; assay type: biochemical; conditions: 30 μM vesicles, 1 mM Ca2+, 37° C.
# Procedure: as §1, §2
# [3] = pH-dependence of the hydrolysis of phosphatidylglycerol vesicles; assay type: biochemical
# Procedure: as §1, §2
# [4] = from references [8], [16]; cited from earlier work
molecule,measurement,setting,value
B1,apparent KCa2+,"[1]; PC vesicles as substrate, hyperbolic dependence on Ca2+ concentration",140 ± 40 µM
same,Ca2+ dependence of hydrolysis of phospholipid vesicles,[1]; phospholipid vesicles,strictly Ca^2+ dependent
same,rate of POPC hydrolysis relative to rate of POPG,[2],~6%
same,"relative rates for the hydrolysis of POPG, POPS, and POPC vesicles",[2],highest with anionic POPG vesicles
same,rate of hydrolysis of phosphatidylglycerol vesicles versus pH,[3],increases with pH in the range 5-7
B2,preference for POPG versus POPC vesicles,[4],3 fold
B3,preference for POPG versus POPC vesicles,[4],greater than 10^5 fold
B4,preference for POPG versus POPC vesicles,[4],10 fold
